Tests used:
caspase 8 = target: T1, caspase 8 (Homo sapiens, UniProt Q14790); experiment: In vitro self-activation of recombinant caspase 8; format: biochemical; details: peptides 200 μM, 2 h, procaspase 8 (0.2 μg), colorimetric substrate
T1 construct: 21 amino acid linker (vector-derived) (N); purchased Alexis Biochemicals 201-041-C005
Description: (§1) FIG. 5 provides results showing the direct association of C/EBPβ-Glu^217 with procaspases 1 and 8. […] Enzyme activity was measured in the absence (control) or presence of C/EBPβ peptides (200 μM) for 2 h, using a procaspases 1 (1U) (not shown) and 8 (0.2 μg) activity assay. Values are presented as the mean±one half the range of duplicates. Panel C provides results for cells cultured on a collagen type I matrix and incubated with the indicated cell permeant, purified synthetic N-acetyl, C-aldehyde C/EBPβ tetra-peptides (10 μM) or with recombinant C/EBPβ-HA peptides as indicated, together with the Chariot reagent (Active Motif) for 4 h. Control cells were incubated without peptides (P<0.05 for all peptides containing Ala^217).
FIG. 7 provides data showing that phosphorylation of rat C/EBPβ on Ser^105 prevents stellate cell apoptosis. Panel A provides results for mouse stellate cells transfected as described herein (See, FIG. 2), with mutant p90RSK or treated with lactacystin (10 μM) (closed bars), and co-transfected with CMV-rC/EBPβ-Asp^105 (1 μg each) (open bars) as indicated. Annexin-V-PE binding was determined as described for FIG. 2 (P<0.05 for rC/EBPβ-Asp^105). Panel B provides results of an annexin-V-PE assay for stellate cells from C/EBPβ^+/+ (closed circles) and rC/EBPβ-Asp^105 transgenic (open circles) mice treated with lactacystin (0-30 μM). The annexin-V-PE assay was performed 6 hours after treatment began (P<0.05 for rC/EBPβ-Asp^105 transgenic mice for 5-25 μM lactacystin). Panel C provides results for rC/EBPβ-HA constructs (0.3 μg) transfected into rat stellate cells. The expressed peptides were immunoprecipitated with anti-HA antibodies. Using a specific antibody, rCEBPβ-PSer^105 was detected only in cells that expressed wild-type rC/EBPβ. […] Reciprocal immunoprecipitations confirmed these associations. […] Enzyme activity was measured using a colorimetric substrate as described in the Examples. […]
(§2) Purified recombinant C/EBPβ peptides, expressed as known in the art (See, Descombes et al., supra; and Buck et al. (1994), supra), and purified synthetic N-acetyl, C-aldehyde tetrapeptides (200 μM) (American Peptide Company) were assayed for their ability to inhibit the activity of purified human recombinant caspases 1 (catalogue # 201-056) and 8 (catalogue # 201-041-C005) (Alexis Biochemicals). […] Caspase activity was determined by the release of the p-nitroaniline colorimetric (Alexis Biochemicals) substrate for caspase 1 (catalogue # 260-026) or 8 (catalogue # 260-045) within the linear part of the kinetic assay (Thornberry et al. (1997), supra; Stennicke and Salvesen, supra). […]

caspase 1 = target: T2, caspase 1 (Homo sapiens, UniProt P29466); experiment: In vitro self-activation of recombinant caspase 1; format: biochemical; details: peptides 200 μM, 2 h, procaspase 1 (1U)
T2 construct: purchased Alexis Biochemicals 201-056
T2 sequence (P29466 120-404): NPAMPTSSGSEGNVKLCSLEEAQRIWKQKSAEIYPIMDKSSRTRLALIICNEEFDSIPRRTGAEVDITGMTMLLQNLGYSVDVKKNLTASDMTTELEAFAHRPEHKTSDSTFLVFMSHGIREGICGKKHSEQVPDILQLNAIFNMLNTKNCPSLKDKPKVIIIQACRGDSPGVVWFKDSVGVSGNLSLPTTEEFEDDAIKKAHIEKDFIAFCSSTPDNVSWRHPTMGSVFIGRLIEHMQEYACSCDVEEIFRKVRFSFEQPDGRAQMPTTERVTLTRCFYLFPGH
Description: as §1
as §2, with “Biochemicals). The sequence of caspase 8 includes Ser217 through Asp479 cloned into an expression vector containing a 21 amino acid linker at the N-terminus. Thus, the prodomain (first 220 amino acids) is essentially missing.” for “Biochemicals).”
To delineate the role of C/EBPβ on the activation of procaspases 1 and 8, the self-activation of recombinant procaspases 1 and 8 was induced in vitro (Wilson et al., supra; Margolin et al., supra; and Earnshaw et al., supra), and the effect of purified recombinant C/EBPβ peptides, produced as described previously (Descombes et al., supra; and Buck et al., (1994), supra) on this process was determined. […]

T1 sequence (Q14790 217-479): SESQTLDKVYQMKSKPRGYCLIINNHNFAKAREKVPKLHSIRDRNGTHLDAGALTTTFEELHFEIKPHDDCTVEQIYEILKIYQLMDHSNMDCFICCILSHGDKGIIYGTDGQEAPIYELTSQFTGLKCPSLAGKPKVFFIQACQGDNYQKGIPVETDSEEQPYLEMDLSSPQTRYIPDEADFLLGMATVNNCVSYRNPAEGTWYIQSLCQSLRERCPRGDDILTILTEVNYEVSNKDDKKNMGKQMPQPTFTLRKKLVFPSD

B1: C/EBPβ-Glu^217: modified murine C/EBPβ with mutation of Thr^217 to glutamic acid (SEQ ID NO:4), phosphorylation mimic (protein, listed as Mus musculus)
chain: MHRLLAWDAACLPPPPAAFRPMEVANFYYEPDCLAYGAKAARAAPRAPAAEPAIGEHERAIDFSPYLEPLAPAADFAAPAPAHHDFLSDLFADDYGAKPSKKPADYGYVSLGRAGAKAAPPACFPPPPPAALKAEPGFEPADCKRADDAPAMAAGFPFALRAYLGYQATPSGSSGSLSTSSSSSPPGTPSPADAKAAPAACFAGPPAAPAKAKAKKZVDKLSDEYKMRRERNNIAVRKSRDKAKMRNLETQHKVLELTAENERLQKKVEQLSRELSTLRNLFKQLPEPLLASAGHC
With B1 as the molecule, how does the “Inhibition of in vitro self-activation of caspase 8” value (caspase 8) read?
Its value is “inhibited the in vitro self-activation”.

What about the “Inhibition of in vitro self-activation of caspase 1” value (caspase 1) of the same molecule?
The value was “inhibited the in vitro self-activation”.
